Data published in PMC2914828.

Biological target: alternative complex III (ACIII) subunit s5 (Chloroflexus aurantiacus strain J-10-fl (endogenous))
Test: cross-linking

Substance: alternative complex III (ACIII) subunit s5 (natural protein)
- stoichiometry N: 2
